Experimental findings from patent US20060039904A1 are described below.

Several values for one entry are separate records, joined by “and”; a condition that tells them apart may be missing. Equal values may be shown once.

The target of assay [1] is FcγRIIIA-streptavidin fusion protein (tetramer) (human; Streptomyces avidinii) (UniProt P08637). Kind of assay: ELISA: antibody captured on protein A/G, FcγRIIIA tetramer (streptavidin fusion), biotin-HRP, OD450.
Assay [2] addresses FcγRIIB-streptavidin fusion protein (tetramer) (human; Streptomyces avidinii) (UniProt P31994). The assay can be described thus: ELISA: antibody captured on protein A/G, FcγRIIB-streptavidin, biotin-HRP, OD450.
Assay [3] concerns the target FcγRIIIA (soluble receptor used as analyte in the BIAcore runs) (human) (UniProt P08637). The assay can be described thus: BIAcore run 1, IgG immobilized, soluble FcγRIIIA, steady-state isotherm.
The target is the same in assay [4]. The assay can be described thus: BIAcore run 2, IgG immobilized, soluble FcγRIIIA, steady-state isotherm.
Assay [5] has the same target. Kind of assay: BIAcore run 1, IgG immobilized, soluble FcγRIIIA, Scatchard plot.
Assay [6] shares this target. The assay can be described thus: BIAcore run 2, IgG immobilized, soluble FcγRIIIA, Scatchard plot.

Chain of FcγRIIIA (soluble receptor used as analyte in the BIAcore runs) (human) (P08637 17-208): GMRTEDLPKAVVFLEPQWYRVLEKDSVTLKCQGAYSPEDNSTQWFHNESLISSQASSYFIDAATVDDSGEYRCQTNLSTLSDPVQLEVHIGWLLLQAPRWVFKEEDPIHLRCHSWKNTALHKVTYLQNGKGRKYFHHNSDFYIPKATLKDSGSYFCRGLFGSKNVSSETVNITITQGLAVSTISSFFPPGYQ

“3F2-3M (3F2 Fc variant S239D/A330L/I332E, IgG1) (from UniProt P01857 1-330) (antibody)” registered an EC50 (read off the curve) in assay [1] of 0.05 µg/mL.

Substance “3F2-1M (3F2 Fc variant I332E, IgG1) (from UniProt P01857 1-330) (antibody)” yielded a concentration giving a half-maximal response (EC50 (read off the curve)) in assay [1] of 0.05 µg/mL.

Regarding “Vitaxin®-1M (Vitaxin® Fc variant I332E, IgG1) (from UniProt P01857 1-330) (antibody)”, the EC50 (read off the curve) in assay [2] was found to be 0.3 µg/mL.

Consider Vitaxin® (wild type IgG1 antibody), for which the equilibrium dissociation constant (Kd) worked out at 3.47 µM in assay [3], 8.9 µM in assay [4], 3.26 µM in assay [5] and 7.6 µM in assay [6]. Further, in assay [2], the concentration for a half-maximal effect (EC50 (read off the curve)) was 0.4 µg/mL and 0.3 µg/mL.
